Legend:
[1] = test system: MCF-7 human breast cancer cell line; experiment: In vivo combination therapy in tumor-bearing nude mice transplanted with MCF-7; conditions: experimental section 2 (anti-CAPRIN-1 antibody = #9, 5 mg/kg i.p.), day 26, mouse PBMC given to all groups
Protocol: IgG2b (R&D systems, catalog No. MAB11291)) were administered in combination, a group to which an antitumor agent and anti-CAPRIN-1 monoclonal antibody were administered in combination, and a group to which control (PBS(−) was administered. In addition, mouse PBMC was administered to all the administration groups. […] PBMC separated from Balb/c mouse spleen was intravenously administered to each mouse at 1×10^7 cells/0.2 mL (RPMI1640) on days 0, 8, and 15 after the start of the experiment. […] PBMC separated from Balb/c mouse spleen was intravenously administered to each mouse at 1×10^7 cells/0.2 mL (RPMI1640) on days 0, 8, and 15 after the start of the experiment. Paclitaxel was intraperitoneally administered to each of 5 tumor-bearing mice at 15 mg/kg/shot on days 0 and 3 after the start of the experiment. PBMC separated from Balb/c mouse spleen was intravenously administered to each mouse at 1×10^7 cells/0.2 mL (RPMI1640) on days 0, 8, and 15 after the start of the experiment. Docetaxel was intraperitoneally administered to each of 5 tumor-bearing mice at 10 mg/kg/shot on days 0 and 3 after the start of the experiment. PBMC separated from Balb/c mouse spleen was intravenously administered to each mouse at 1×10^7 cells/0.2 mL (RPMI1640) on days 0, 8, and 15 after the start of the experiment. […]

[2] = test system: human breast cancer cell line MDA-MB-157; experiment: ADCC activity, chromium-51 release; assay type: cell-based; conditions: 1 μg antibody, mouse lymphocytes 2×10^5 cells, 10^3 target cells, 4 hours
Protocol: (§1) The above-selected anti-CAPRIN-1 monoclonal antibodies #1 to #11 were evaluated for their cytotoxic activities against cancer cells (ADCC activity). Hybridomas producing the monoclonal antibodies #1 to #11 were each cultured using hybridoma SFM medium (Invitrogen). The thus obtained supernatant was purified using Hitrap ProteinA Sepharose FF (GE HealthCare), replaced with PBS(−), and then filtered through 0.22 μm filter (Millipore). The obtained filtrates were used as antibodies for assay. The human breast cancer cell line MDA-MB-157 (10^6 cells) was collected in a 50-ml centrifuge tube, to which 100 μCi chromium(Cr)-51 was then added, and incubated at 37° C. for 2 hours. Subsequently, the cells were washed 3 times with RPMI1640 medium containing 10% FBS, and then dispensed into each well of a 96-well V-bottom plate at 10^3 cells per well. The thus obtained cells are used as target cell. The above purified antibodies (1 μg each) were added to the cells. Separately, mouse lymphocytes separated from the mouse spleen were further added (2×10^5 cells) and then cultured under conditions of 37° C. and 5% CO2 for 4 hours. After culture, the amount of chromium(Cr)-51 released from cytotoxically impaired tumor cells in a culture supernatant was measured, so that the ADCC activity of each anti-CAPRIN-1 antibody against cancer cells was calculated. […] On the other hand, similar procedures were performed using the monoclonal antibodies (which were prepared in Example 2) reactive with the CAPRIN-1 protein itself, but not reactive with the surface of cancer cells, no cytotoxic activity was observed (see FIG. 1). […] Similarly, the anti-CAPRIN-1 antibodies were examined for ADCC activity against other human cancer cell lines including glioma cell lines (T98G and U373), lung cancer cell lines (A549 and QG56), renal cancer cell lines (Caki-1 and ACHN), a uterine cervix cancer cell line (SW756), a bladder cancer cell line (T24), an esophageal cancer cell line (KYSE180), gastric cancer cell lines (MNK28 and MNK45), a colorectal cancer cell line (SW480), a leukemia cell line (AML5), and a lymphoma cell line (Ramos).

AML5 = experiment: ADCC activity, chromium-51 release; assay type: cell-based, human; conditions: leukemia cell line
Protocol: as §1

T24 = experiment: ADCC activity, chromium-51 release; assay type: cell-based, human; conditions: bladder cancer cell line
Protocol: as §1

Ramos = experiment: ADCC activity, chromium-51 release; assay type: cell-based, human; conditions: lymphoma cell line
Protocol: as §1

SW480 = experiment: ADCC activity, chromium-51 release; assay type: cell-based, human; conditions: colorectal cancer cell line
Protocol: as §1

MNK28 = experiment: ADCC activity, chromium-51 release; assay type: cell-based, human; conditions: gastric cancer cell line
Protocol: as §1

QG56 = experiment: ADCC activity, chromium-51 release; assay type: cell-based, human; conditions: lung cancer cell line
Protocol: as §1

B1: monoclonal antibody #9: mouse anti-CAPRIN-1 monoclonal antibody; heavy chain variable region SEQ ID NO: 103, light chain variable region SEQ ID NO: 107 (antibody, listed as Mus musculus, V domains shown)
VH: PRASLGVSETLLCTSGFTFTDYYMSWVRQPPGKALEWLGFIRNKANGYTTEYSASVKGRFTISRDNSQSILYLQMNTLRAEDSATYYCARANWAFDYWGQGTTVTVSSK
VL: SGDRVSLSCRASQSISNYLHWYQQKSHESPRLLIKYASQSISGIPSRFSGSGSGTDFTLSINSVETEDFGMYFCQQSNSWPYTFGGGTKLEIKQ
tumor volume relative to PBS(−) control group designated at 100% [1]: about 45%
ADCC activity (cytotoxic activity) against MDA-MB-157 [2]: 32.4%
ADCC activity against AML5 (AML5): ≥ 10%
ADCC activity against T24 (T24): ≥ 18%
ADCC activity against Ramos (Ramos): ≥ 10%
ADCC activity against SW480 (SW480): ≥ 17%
ADCC activity against MNK28 (MNK28): ≥ 15%
ADCC activity against QG56 (QG56): ≥ 20%
